Experimental data taken from US20200199241A1 (Chugai, published 2020).

How the values were obtained:
human FcγRIIb = molecular target: T1, human FcγRIIb (human, UniProt P31994 43-217, limits assumed); test: SPR (Biacore), binding amount relative to IL6R-BF648/IL6R-L = 100
T1 construct: also called FcγIIB
T1 sequence: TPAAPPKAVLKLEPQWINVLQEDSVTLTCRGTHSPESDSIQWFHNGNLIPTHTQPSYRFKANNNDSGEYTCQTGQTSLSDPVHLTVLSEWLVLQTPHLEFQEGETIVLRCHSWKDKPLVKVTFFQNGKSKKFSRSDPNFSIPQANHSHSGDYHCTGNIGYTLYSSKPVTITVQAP

human FcγRIIa type R = molecular target: T2, human FcγRIIa type R (human, UniProt P12318 36-217); test: as above
T2 construct: also called FcγRIIaR; FcγRIIa(R)
T2 chain: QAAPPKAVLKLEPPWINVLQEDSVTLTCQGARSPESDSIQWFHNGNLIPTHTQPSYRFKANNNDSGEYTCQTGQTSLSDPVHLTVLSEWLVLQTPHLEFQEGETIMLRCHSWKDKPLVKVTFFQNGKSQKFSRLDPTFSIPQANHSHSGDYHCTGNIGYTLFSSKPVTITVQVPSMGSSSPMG

human FcγRIa = molecular target: T3, human FcγRIa (human, UniProt P12314 16-292, limits assumed); test: as above
T3 construct: also called CD64
T3 sequence (P12314 16-292 limits assumed): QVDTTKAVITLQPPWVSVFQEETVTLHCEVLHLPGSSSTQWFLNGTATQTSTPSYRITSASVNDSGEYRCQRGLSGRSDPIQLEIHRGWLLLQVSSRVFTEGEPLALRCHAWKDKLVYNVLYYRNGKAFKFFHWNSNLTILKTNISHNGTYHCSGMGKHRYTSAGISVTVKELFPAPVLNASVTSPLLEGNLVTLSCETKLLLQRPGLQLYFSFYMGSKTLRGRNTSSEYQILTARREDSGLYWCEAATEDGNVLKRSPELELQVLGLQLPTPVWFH

human FcγRIIa type H = molecular target: T4, human FcγRIIa type H (human, UniProt P12318 36-217); test: as above
T4 construct: also called FcγRIIaH; FcγRIIa(H)
T4 sequence: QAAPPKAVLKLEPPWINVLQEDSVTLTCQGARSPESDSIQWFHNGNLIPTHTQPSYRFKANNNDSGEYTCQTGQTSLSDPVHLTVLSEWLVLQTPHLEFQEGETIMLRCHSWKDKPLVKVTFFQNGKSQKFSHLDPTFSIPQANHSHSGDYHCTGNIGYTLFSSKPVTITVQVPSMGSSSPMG

FcγRIIb [1] = molecular target: T5, FcγRIIb (human, UniProt P31994 43-217, limits assumed); test: ratio of SPR KD values, parent IL6R-B3/IL6R-L
T5 construct: also called FcγIIB; CD32
T5 sequence: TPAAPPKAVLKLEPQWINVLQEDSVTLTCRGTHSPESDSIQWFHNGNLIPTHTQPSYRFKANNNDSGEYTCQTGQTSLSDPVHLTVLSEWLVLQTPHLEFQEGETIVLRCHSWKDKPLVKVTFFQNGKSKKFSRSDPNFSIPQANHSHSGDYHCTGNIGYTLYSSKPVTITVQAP
Text: Furthermore, KD(IIaR)/KD(IIb) and KD(IIaH)/KD(IIb) in the table respectively represent the value obtained by dividing the KD value of each variant for FcγRIIaR by the KD value of each variant for FcγRIIb, and the value obtained by dividing the KD value of each variant for FcγRIIaH by the KD value of each variant for FcγRIIb. KD(IIb) of the parent polypeptide/KD(IIb) of the altered polypeptide refers to the value obtained by dividing the KD value of the parent polypeptide for FcγRIIb by the KD value of each variant for FcγRIIb.

FcγRIIa type R = molecular target: T6, FcγRIIa type R (human, UniProt P12318 36-217); test: SPR (Biacore), method of Example 14
T6 construct: also called FcγRIIaR; FcγRIIa(R)
T6 chain: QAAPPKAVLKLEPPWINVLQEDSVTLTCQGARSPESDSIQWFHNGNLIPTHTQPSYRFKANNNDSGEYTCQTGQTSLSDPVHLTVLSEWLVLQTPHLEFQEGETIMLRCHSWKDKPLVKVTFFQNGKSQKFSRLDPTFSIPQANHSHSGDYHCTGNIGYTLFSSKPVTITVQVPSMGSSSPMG

FcγRIIa type H = molecular target: T7, FcγRIIa type H (human, UniProt P12318 36-217); test: SPR (Biacore), method of Example 14
T7 construct: also called FcγRIIaH; FcγRIIa(H)
T7 sequence: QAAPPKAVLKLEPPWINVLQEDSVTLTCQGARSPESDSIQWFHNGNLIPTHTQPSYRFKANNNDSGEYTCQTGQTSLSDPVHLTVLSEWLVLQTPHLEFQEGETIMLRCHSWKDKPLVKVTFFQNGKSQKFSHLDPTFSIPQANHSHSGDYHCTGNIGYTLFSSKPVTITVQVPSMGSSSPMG

FcγRIIb [2] = molecular target: T5, FcγRIIb; test: SPR (Biacore), method of Example 14
FcγRIa = molecular target: T8, FcγRIa (human, UniProt P12314 16-292, limits assumed); test: SPR (Biacore), method of Example 14
T8 construct: also called CD64
T8 sequence (P12314 16-292 limits assumed): as the sequence (P12314 16-292 limits assumed) above

B1: IL6R-BP112/IL6R-L (antibody, human IgG1)
heavy: QVQLQESGPGLVKPSETLSLTCAVSGHSISHDHAWSWVRQPPGEGLEWIGFISYSGITNYNPSLQGRVTISRDNSKNTLYLQMNSLRAEDTAVYYCARSLARTTAMDYWGEGTLVTVSSASTKGPSVFPLAPSSKSTSGGTAALGCLVKDYFPEPVTVSWNSGALTSGVHTFPAVLQSSGLYSLSSVVTVPSSSLGTQTYICNVNHKPSNTKVDKKVEPKSCDKTHTCPPCPAPELLGGDSVFLFPPKPKDTLMISRTPEVTCVVVDVSHEDGEVKFNWYVDGVEVHNAKTKPREEQYNSTYRVVSVLTVLHQDWLNGKEYKCKVSNKALPAPIEKTISKAKGQPREPQVYTLPPSRDELTKNQVSLTCLVKGFYPSDIAVEWESNGQPENNYKTTPPVLDSDGSFFLYSKLTVDKSRWQQGNVFSCSVMHEALHNHYTQESLSLSP
light: DIQMTQSPSSLSASVGDRVTITCRASQDISSYLNWYQQKPGKAPKLLIYYTSRLHSGVPSRFSGSGSGTDFTFTISSLQPEDIATYYCQQGNTLPYTFGQGTKVEIK
notes: Alteration introduced into IL6R-B3; also called P238D/P271G
relative binding (human FcγRIIb): 157 | relative binding (human FcγRIIa type R): 340 | relative binding (human FcγRIa): 119 | relative binding (human FcγRIIa type H): 113

B2: IL6R-BP212/IL6R-L (antibody, human IgG1)
heavy: QVQLQESGPGLVKPSETLSLTCAVSGHSISHDHAWSWVRQPPGEGLEWIGFISYSGITNYNPSLQGRVTISRDNSKNTLYLQMNSLRAEDTAVYYCARSLARTTAMDYWGEGTLVTVSSASTKGPSVFPLAPSSKSTSGGTAALGCLVKDYFPEPVTVSWNSGALTSGVHTFPAVLQSSGLYSLSSVVTVPSSSLGTQTYICNVNHKPSNTKVDKKVEPKSCDKTHTCPPCPAPDLLGGDSVFLFPPKPKDTLMISRTPEVTCVVVDVSDEDGEVKFNWYVDGVEVHNAKTKPREEQDNSTYRVVSVLTVLHQDWLNGKEYKCKVSNKALPRPIEKTISKAKGQPREPQVYTLPPSRDELTKNQVSLTCLVKGFYPSDIAVEWESNGQPENNYKTTPPVLDSDGSFFLYSKLTVDKSRWQQGNVFSCSVMHEALHNHYTQESLSLSP
light: DIQMTQSPSSLSASVGDRVTITCRASQDISSYLNWYQQKPGKAPKLLIYYTSRLHSGVPSRFSGSGSGTDFTFTISSLQPEDIATYYCQQGNTLPYTFGQGTKVEIK
notes: Anti-IL-6R human IgG1 variant; copies: 2 + 2
KD(IIb) of the parent polypeptide/KD(IIb) of altered polypeptide (FcγRIIb [1]): 18.7 fold | Kd (FcγRIIa type R): 3500 nM | Kd (FcγRIIa type H): 22000 nM | Kd (FcγRIIb [2]): 170 nM | Kd (FcγRIa): 5.2 nM

B3: IL6R-BP117/IL6R-L (antibody, human IgG1)
heavy: QVQLQESGPGLVKPSETLSLTCAVSGHSISHDHAWSWVRQPPGEGLEWIGFISYSGITNYNPSLQGRVTISRDNSKNTLYLQMNSLRAEDTAVYYCARSLARTTAMDYWGEGTLVTVSSASTKGPSVFPLAPSSKSTSGGTAALGCLVKDYFPEPVTVSWNSGALTSGVHTFPAVLQSSGLYSLSSVVTVPSSSLGTQTYICNVNHKPSNTKVDKKVEPKSCDKTHTCPPCPAPELLGGDSVFLFPPKPKDTLMISRTPEVTCVVVDVSHEDPEVKFNWYVDGVEVHNAKTKPREEQYNSTYRVVSVLTVLHQDWLNGKEYKCKVSNDALPAPIEKTISKAKGQPREPQVYTLPPSRDELTKNQVSLTCLVKGFYPSDIAVEWESNGQPENNYKTTPPVLDSDGSFFLYSKLTVDKSRWQQGNVFSCSVMHEALHNHYTQESLSLSP
light: DIQMTQSPSSLSASVGDRVTITCRASQDISSYLNWYQQKPGKAPKLLIYYTSRLHSGVPSRFSGSGSGTDFTFTISSLQPEDIATYYCQQGNTLPYTFGQGTKVEIK
notes: Alteration introduced into IL6R-B3; also called P238D/K326D
relative binding (human FcγRIIb): 118 | relative binding (human FcγRIIa type R): 166 | relative binding (human FcγRIa): 124 | relative binding (human FcγRIIa type H): 96

B4: IL6R-BP210/IL6R-L (antibody, human IgG1)
heavy: QVQLQESGPGLVKPSETLSLTCAVSGHSISHDHAWSWVRQPPGEGLEWIGFISYSGITNYNPSLQGRVTISRDNSKNTLYLQMNSLRAEDTAVYYCARSLARTTAMDYWGEGTLVTVSSASTKGPSVFPLAPSSKSTSGGTAALGCLVKDYFPEPVTVSWNSGALTSGVHTFPAVLQSSGLYSLSSVVTVPSSSLGTQTYICNVNHKPSNTKVDKKVEPKSCDKTHTCPPCPAPELLGDDSVFLFPPKPKDTLMISRTPEVTCVVVDVSDEDGEVKFNWYVDGVEVHNAKTKPREEQYNSTYRVVSVLTVLHQDWLNGKEYKCKVSNKALPRPIEKTISKAKGQPREPQVYTLPPSRDELTKNQVSLTCLVKGFYPSDIAVEWESNGQPENNYKTTPPVLDSDGSFFLYSKLTVDKSRWQQGNVFSCSVMHEALHNHYTQESLSLSP
light: DIQMTQSPSSLSASVGDRVTITCRASQDISSYLNWYQQKPGKAPKLLIYYTSRLHSGVPSRFSGSGSGTDFTFTISSLQPEDIATYYCQQGNTLPYTFGQGTKVEIK
notes: as for B2
KD(IIb) of the parent polypeptide/KD(IIb) of altered polypeptide (FcγRIIb [1]): 78.4 fold | Kd (FcγRIIa type R): 1000 nM | Kd (FcγRIIa type H): 95000 nM | Kd (FcγRIIb [2]): 39 nM | Kd (FcγRIa): 65 nM

B5: IL6R-BP120/IL6R-L (antibody, human IgG1)
heavy: QVQLQESGPGLVKPSETLSLTCAVSGHSISHDHAWSWVRQPPGEGLEWIGFISYSGITNYNPSLQGRVTISRDNSKNTLYLQMNSLRAEDTAVYYCARSLARTTAMDYWGEGTLVTVSSASTKGPSVFPLAPSSKSTSGGTAALGCLVKDYFPEPVTVSWNSGALTSGVHTFPAVLQSSGLYSLSSVVTVPSSSLGTQTYICNVNHKPSNTKVDKKVEPKSCDKTHTCPPCPAPELLGGDSVFLFPPKPKDTLMISRTPEVTCVVVDVSHEDPEVKFNWYVDGVEVHNAKTKPREEQYNSTYRVVSVLTVLHQDWLNGKEYKCKVSNEALPAPIEKTISKAKGQPREPQVYTLPPSRDELTKNQVSLTCLVKGFYPSDIAVEWESNGQPENNYKTTPPVLDSDGSFFLYSKLTVDKSRWQQGNVFSCSVMHEALHNHYTQESLSLSP
light: DIQMTQSPSSLSASVGDRVTITCRASQDISSYLNWYQQKPGKAPKLLIYYTSRLHSGVPSRFSGSGSGTDFTFTISSLQPEDIATYYCQQGNTLPYTFGQGTKVEIK
notes: Alteration introduced into IL6R-B3; also called P238D/K326E
relative binding (human FcγRIIb): 114 | relative binding (human FcγRIIa type R): 175 | relative binding (human FcγRIa): 125

B6: IL6R-BP126/IL6R-L (antibody, human IgG1)
heavy: QVQLQESGPGLVKPSETLSLTCAVSGHSISHDHAWSWVRQPPGEGLEWIGFISYSGITNYNPSLQGRVTISRDNSKNTLYLQMNSLRAEDTAVYYCARSLARTTAMDYWGEGTLVTVSSASTKGPSVFPLAPSSKSTSGGTAALGCLVKDYFPEPVTVSWNSGALTSGVHTFPAVLQSSGLYSLSSVVTVPSSSLGTQTYICNVNHKPSNTKVDKKVEPKSCDKTHTCPPCPAPELLGGDSVFLFPPKPKDTLMISRTPEVTCVVVDVSHEDPEVKFNWYVDGVEVHNAKTKPREEQYNSTYRVVSVLTVLHQDWLNGKEYKCKVSNLALPAPIEKTISKAKGQPREPQVYTLPPSRDELTKNQVSLTCLVKGFYPSDIAVEWESNGQPENNYKTTPPVLDSDGSFFLYSKLTVDKSRWQQGNVFSCSVMHEALHNHYTQESLSLSP
light: DIQMTQSPSSLSASVGDRVTITCRASQDISSYLNWYQQKPGKAPKLLIYYTSRLHSGVPSRFSGSGSGTDFTFTISSLQPEDIATYYCQQGNTLPYTFGQGTKVEIK
notes: Alteration introduced into IL6R-B3; also called P238D/K326L
relative binding (human FcγRIIb): 103 | relative binding (human FcγRIIa type R): 167 | relative binding (human FcγRIa): 113 | relative binding (human FcγRIIa type H): 132

B7: IL6R-BP205/IL6R-L (antibody, human IgG1)
heavy: QVQLQESGPGLVKPSETLSLTCAVSGHSISHDHAWSWVRQPPGEGLEWIGFISYSGITNYNPSLQGRVTISRDNSKNTLYLQMNSLRAEDTAVYYCARSLARTTAMDYWGEGTLVTVSSASTKGPSVFPLAPSSKSTSGGTAALGCLVKDYFPEPVTVSWNSGALTSGVHTFPAVLQSSGLYSLSSVVTVPSSSLGTQTYICNVNHKPSNTKVDKKVEPKSCDKTHTCPPCPAPDLLGGDSVFLFPPKPKDTLMISRTPEVTCVVVDVSHEDGEVKFNWYVDGVEVHNAKTKPREEQDNSTYRVVSVLTVLHQDWLNGKEYKCKVSNKALPRPIEKTISKAKGQPREPQVYTLPPSRDELTKNQVSLTCLVKGFYPSDIAVEWESNGQPENNYKTTPPVLDSDGSFFLYSKLTVDKSRWQQGNVFSCSVMHEALHNHYTQESLSLSP
light: DIQMTQSPSSLSASVGDRVTITCRASQDISSYLNWYQQKPGKAPKLLIYYTSRLHSGVPSRFSGSGSGTDFTFTISSLQPEDIATYYCQQGNTLPYTFGQGTKVEIK
notes: as for B2
KD(IIb) of the parent polypeptide/KD(IIb) of altered polypeptide (FcγRIIb [1]): 19.4 fold | Kd (FcγRIIa type R): 3500 nM | Kd (FcγRIIa type H): 28000 nM | Kd (FcγRIIb [2]): 160 nM | Kd (FcγRIa): 7.7 nM
